This note sets out measurements from the nanobody polyreactivity screen of Harvey et al. (2022).

The data set is described as follows: yeast display, Sf9 membrane polyspecificity reagent, FACS + sequencing; frameworks hold sequencing errors. The method, boiled down: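 Using colony PCR, genes from sorted yeast display clones were amplified, then sequenced on MiSeq at 2 × 250 and filtered by CDR length. The clones had been stained with 10% biotinylated, detergent-solubilized Sf9 membrane reagent for 1 hour at 4 °C and sorted by FACS into low and high (top ~1%) gates on anti-HA and streptavidin fluorescence. Polyreactivity labels come from the gate of origin.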
On to “QVQLVESGGGLVQAGGSLRLSCAASGRTFYGYAMAWYRQAPGKERELVAAISVSGGSPYYADSVKGRFTISRDNAKNTVYLQMNSQKPEDTAVYYCIAKYSYRRWYDFDYWGQGTQVTVSS”, for which the “polyreactivity (PSR sort gate)” value is reported as “low polyreactivity”.

In the case of “QVQLVESGGGLVQAGGSLRLSCAASGRTFYGYAMGWYRQAPGKERELVAAISFSGGRTYYADSVKGRFTISRDNAKNTVYLQMNSLKPEDTAVYYCNRGLYPFDWVQGTQVTVSS”, the “polyreactivity (PSR sort gate)” value is “high polyreactivity”.

On to “QVQLVESGGGLVQAGGSLRLSCAASGRTFYGYAMGWYRQAPGKERELVAAISKRGGSTYYADSVKGRFTISRDNAKNTVYLQMNSLKPEDTAVYYCARPYLGPYSGYDYNYWGQGTQVTVSS”, for which the “polyreactivity (PSR sort gate)” value is recorded as “high polyreactivity”.

In the case of “QVQLVESGGGLVQAGGSLRLSCAASGRTFYGYAMGWYRQAPGKERELVAAISKTGGSTYYADSVKGRFTISRDNAKNTVYLQMNSLKPEDTAVYYCNARRIYRLEYDSWGQGTQVTVSS”, the “polyreactivity (PSR sort gate)” value is on record as “high polyreactivity”.

For the sequence “QVQLVESGGGLVQAGGSLRLSCAASGRTFYGYAMGWYRQAPGKERELVAAITRSGGSTYYADSVKGRFTISRDNAKNTVYLQMNSLKPEDTAVYYCAAGGQARHDYWGQGTQVTVSS”, the “polyreactivity (PSR sort gate)” value is “low polyreactivity”.

Turning to “QVQLVESGGGLVQAGGSLRLSCAASGRTFYGYAMGWYRQAPGKERELVASISRDGSTNDADSVKGRFTISRDNAKNTVYLQMNRLKPEDTEVYYCAADIWYYRYPIYYYSYDYWGQGTQVTVSS”, the “polyreactivity (PSR sort gate)” value is given as “low polyreactivity”.

Regarding “QVQLVESGGGLVQAGGSLRLSCAASGRTFYGYAMGWYRQAPGNERELVATITRRGGSTYYADSVKGRFRISRDNAKNTVYLQMNSLKPEDTAVYYCARQGDQYYRDGDDYWGQGTQVTVSS”, the “polyreactivity (PSR sort gate)” value is reported as “high polyreactivity”.

“QVQLVESGGGLVQAGGSLRLSCAASGRTFYGYDMGWYRQAPGKERELVATISSGGSTNYADSVKGRFTISRDNAKNTVYLQMHSLKPEDTAVYYCIARRFSGYRKGLRPYGSGMNYWGQGTQVTVSS”: the “polyreactivity (PSR sort gate)” value is given as “low polyreactivity”.

With “QVQLVESGGGLVQAGGSLRLSCAASGRTFYIYAMGWYRQAPGKERELVAAISTRDTRTYYADSVKGRFTISRDNAKNTVYLQMNSLKPEDTAVYYCAADAVDRDSDYWGQGTQVTVSS”, the “polyreactivity (PSR sort gate)” value was “high polyreactivity”.

For “QVQLVESGGGLVQAGGSLRLSCAASGRTFYIYAMGWYRQAPGKERELVAAITRGGGSTSYADSVKGRFTISRDNAKNTVYLQMNSLKPEDTAVYYCAARYYFRWRRYDYWGQGTQVTVSS”, the “polyreactivity (PSR sort gate)” value is “high polyreactivity”.

Regarding “QVQLVESGGGLVQAGGSLRLSCAASGRTFYIYAMGWYRQAPGKERELVAAITWRGGRTYYADSVKGRFTISRDNAKNTVYLQMNSLKPVDTAVYYCNARSWYSFHPHDYWGQGTQVTVSS”, the “polyreactivity (PSR sort gate)” value is “high polyreactivity”.

On to “QVQLVESGGGLVQAGGSLRLSCAASGRTFYIYAMGWYRQAPGKERELVADITSGGSTYYADSVKGRFTISRDNAKNTVYLQMNSLKPEDTAVYYCAADWVTFYSYTEYDYWGQGTQVTVSS”, for which the “polyreactivity (PSR sort gate)” value is recorded as “low polyreactivity”.

Turning to “QVQLVESGGGLVQAGGSLRLSCAASGRTFYIYAMGWYRQAPGKERELVAGITYSGGRTYYADSVKGRFTISRDNAKNTVYLQMNSLKPEDTAVYYCAARPYLTTEGPYNYWGQGTQVTVSS”, the “polyreactivity (PSR sort gate)” value is given as “low polyreactivity”.

Turning to “QVQLVESGGGLVQAGGSLRLSCAASGRTFYIYAMGWYRQAPVKERELVAAITYGGGRTFYADSVKGRFTISRDNAKNTVYLKMNSLKPEDTAVYYCARGDFYYHSRYTYYTSDYWGQGTQVTVSS”, the “polyreactivity (PSR sort gate)” value is given as “high polyreactivity”.

On to “QVQLVESGGGLVQAGGSLRLSCAASGRTFYKYAMGWYRPAPGKERELVAAISGSGGGTYYADSVKGRFTISRDNAKNTVYLQMNSLKPEDTAVYYCAAVYLYYAYAFDYWGQGTHVTVSS”, for which the “polyreactivity (PSR sort gate)” value is given as “high polyreactivity”.

Regarding “QVQLVESGGGLVQAGGSLRLSCAASGRTFYKYAMGWYRQAPGKERELVAAISKSGGRTYYADSVKGRFTISRDNAKNTVYLQLNSLKPEDTAVYYCAAEPFIPDQSRYYYWGQGTQVTVSS”, the “polyreactivity (PSR sort gate)” value is on record as “high polyreactivity”.

For the sequence “QVQLVESGGGLVQAGGSLRLSCAASGRTFYLNAMGWYRQAPGKERQLVAVISYRGDSTYADSVKGRFTISRDNAKNTVYLQMNSLKPEDTAVYYCAADLTRYHYRYLVTHWWYDYWGQGTQVTVSS”, the “polyreactivity (PSR sort gate)” value is listed as “low polyreactivity”.

On to “QVQLVESGGGLVQAGGSLRLSCAASGRTFYLYTMGWYRQAPGKERELVAAINGSGGSTYYADSVKGRFTISRDNAKNTVYLQMNSLKPEATAVYYCAVLYRYGYDYWGQGTQVTVSS”, for which the “polyreactivity (PSR sort gate)” value is “low polyreactivity”.

As to “QVQLVESGGGLVQAGGSLRLSCAASGRTFYNAMGWYRQAPGKERELVAGIRWSGASTYYADSVKGRFTISRDNAKNTVYLQMNSLKPEDTAVYYCAARRHSTRLRLTYDYWGQGTQVTVSS”, the “polyreactivity (PSR sort gate)” value is reported as “high polyreactivity”.

“QVQLVESGGGLVQAGGSLRLSCAASGRTFYNNAMGWYRPAPGKERELVAVISGRGGSTYYADSVKGRFTISRDNAKNTVYLQMNSLKPEDTAVYYCAAGYTRPWRFTYYYWGQGTQVTVSS”: the “polyreactivity (PSR sort gate)” value is on record as “high polyreactivity”.

As for “QVQLVESGGGLVQAGGSLRLSCAASGRTFYNTMGLYRQAPGKERELVAAISRGGITNYADSVKGRFTISRDSAKNTGDLQMHSLKPEDTAVYYCNAEPKRYYYYYKFDSWGQGTQVTVSS”, the “polyreactivity (PSR sort gate)” value is “high polyreactivity”.

Take “QVQLVESGGGLVQAGGSLRLSCAASGRTFYPNAMGWSRQAPGKERELVAAINSGGSTYYADSVKGRFTISRDNAKNTVYLQMNSLKPEDTAVYYCNAERRIAYEYWGQGTQVTVSS”: the “polyreactivity (PSR sort gate)” value is reported as “low polyreactivity”.

In the case of “QVQLVESGGGLVQAGGSLRLSCAASGRTFYPNAMGWYRQAPGKEREFVARISDSGGSTYYADSVKGRFTISRDNAKNTVYLLMNSLKPEDTAVYYCAADYGDPRVNEYDYWGQGTQVTVSS”, the “polyreactivity (PSR sort gate)” value is “low polyreactivity”.

“QVQLVESGGGLVQAGGSLRLSCAASGRTFYPSAMGWYRQAPGKERQLVAAITTSGGRTYYADSVKGRFTISRDNAKNTVYLQMNSLKPEDTAVYYCAKAYREGEGKFDYWGQGTQVTVSS”: the “polyreactivity (PSR sort gate)” value is reported as “high polyreactivity”.

On to “QVQLVESGGGLVQAGGSLRLSCAASGRTFYPYAKGWYRQAPGKERELVAAIRWSGGSTYYADSVKGRFTISRDNAKNTVYLQMNSLKPEDTAVYYCNADWKSYRGPKFDYWGQGTQVTVSS”, for which the “polyreactivity (PSR sort gate)” value is reported as “low polyreactivity”.

Turning to “QVQLVESGGGLVQAGGSLRLSCAASGRTFYPYAMGWYRQAPGKARELVASINWSGASTYYADSVKGRFTISRDNAKNTVYLQMNSLKPEDTAVYYCAARYTPRRYYYWGQGTHVTVSS”, the “polyreactivity (PSR sort gate)” value was “high polyreactivity”.

With “QVQLVESGGGLVQAGGSLRLSCAASGRTFYPYAMGWYRQAPGKERELVAAISSGGGSTYYADSVKGRFTISRDNAKNTVYLQMNSLKPEDTAVYYCAKRAGWAGWYYRNDYWGQGTQVTVSS”, the “polyreactivity (PSR sort gate)” value is on record as “high polyreactivity”.

“QVQLVESGGGLVQAGGSLRLSCAASGRTFYPYGMGWYRQAPGKERELVATITTGGSTNYADSVKGRFTISRDNAKTTVYLQMNSLKPEDTAVYYCAAKTRIRYYSWGQGTQVTVSS”: the “polyreactivity (PSR sort gate)” value is “low polyreactivity”.

As to “QVQLVESGGGLVQAGGSLRLSCAASGRTFYQYYMGWYRQSPGKEREVVAAIDWSGGSTYYADSVKGRFTISRDNAKNTVYLQMNSLKPEDTAVYYCNADAYPHPVVGYDYWGQGTQVTVSS”, the “polyreactivity (PSR sort gate)” value was “low polyreactivity”.

As for “QVQLVESGGGLVQAGGSLRLSCAASGRTFYRNAMGWYRQAPGKERELVAAIRGSGSSTYYADSVKGRFTISRDNAKNTVYLQMNSLKPEDTAVYYCAADYITYNGYARYYYWGQGTQVTVSS”, the “polyreactivity (PSR sort gate)” value is “high polyreactivity”.

As for “QVQLVESGGGLVQAGGSLRLSCAASGRTFYRNPMGWYRQAPGKEWELVAGITRCGRTYYADSVKGRFRISRDNAKNTVYLQMNCLKPEDTAVYYCNKTGGNGNDYWGQGTQVTVSS”, the “polyreactivity (PSR sort gate)” value is reported as “low polyreactivity”.

Turning to “QVQLVESGGGLVQAGGSLRLSCAASGRTFYRNTMGWYRQAPGKERELVAGISYSGGSTYYADSVKGRFTISRDNAKNTVYLQMNSLKPEDTAVYYCATVRRYGYGYDYWGQGTQVTVSS”, the “polyreactivity (PSR sort gate)” value is on record as “high polyreactivity”.

“QVQLVESGGGLVQAGGSLRLSCAASGRTFYRYAMGWYRQAPGKERELVAAITTSGGSTYYADSVKGRFTISRDNAKNTVYLQMNSLKPEDTAVYYCAATYYGYHIRDDYWGQGTQVTVSS”: the “polyreactivity (PSR sort gate)” value was “low polyreactivity”.

Regarding “QVQLVESGGGLVQAGGSLRLSCAASGRTFYRYAMGWYRQAPGKERELVARIRSGGSTNYADSVKGRFTISRDNAKNTVYLQMNSLKPEDTAVYYCAARPGAAGYKYYYWGQGTQVTVSS”, the “polyreactivity (PSR sort gate)” value is recorded as “high polyreactivity”.

Take “QVQLVESGGGLVQAGGSLRLSCAASGRTFYRYAMGWYRQAPGKERELVARITSGSSTNYADSVKGRFTISRDNAKNTVYLQMNSLKPEDTAVYYCAKDPRPYLDYDYWGQGTQVTVSS”: the “polyreactivity (PSR sort gate)” value was “low polyreactivity”.

Consider “QVQLVESGGGLVQAGGSLRLSCAASGRTFYRYTMGWYRQAPGTERELVAAISWSGGSTYYADSVKGRFTSSRDNAKNTVYLQMNSLKPEDTAVYYCAKATYWLYVQWYTYGYWGQGTQVTVSS”, for which the “polyreactivity (PSR sort gate)” value is given as “high polyreactivity”.

As for “QVQLVESGGGLVQAGGSLRLSCAASGRTFYRYVMGWYRQAPGKERELVATITNGGSTNYADSVKGRFTISRYNAKNTVYLQMNSLKPEDTAVYYCAADYPGYVGWPYSYEYYYWGQCTQVTVSS”, the “polyreactivity (PSR sort gate)” value is given as “low polyreactivity”.

For “QVQLVESGGGLVQAGGSLRLSCAASGRTFYSNTMGWYRQAPGNERELVAAISRSGVGTYYADSVKGRFTISRDIAKNSVYLHMNSLKPEDTAVYYCAALPTGKSGYLYDYWGQGTQVTVSS”, the “polyreactivity (PSR sort gate)” value was “high polyreactivity”.

Take “QVQLVESGGGLVQAGGSLRLSCAASGRTFYSYAMGWYRPAPGKERELVAAINSGGDTYYADSVKGRFTISRDNAKNTVYLQMNSLKPEDTAVYYCAADYYWEMDSWGQGTQVTVSS”: the “polyreactivity (PSR sort gate)” value was “low polyreactivity”.

On to “QVQLVESGGGLVQAGGSLRLSCAASGRTFYSYAMGWYRQAPGKERELVAAITWRASTYYADSVKGRFTISRDNAKNTVYLQMNSLKPEDTAVYYCAVRDYRPRYYTFLYNSPYDYWGQGTQVTVSS”, for which the “polyreactivity (PSR sort gate)” value is on record as “high polyreactivity”.

Turning to “QVQLVESGGGLVQAGGSLRLSCAASGRTFYSYAMGWYRQAPGKERELVAGITWSGTSTYYADSVKGRFTISRDNAKNTVYLQMNSLKPEDTAVYYCAAATLYSRYDYWGQGSQVTVSS”, the “polyreactivity (PSR sort gate)” value was “low polyreactivity”.
